{"source": "paper PMC5336307", "about": "“The thermodynamics of Pr55Gag-RNA interaction regulate the assembly of HIV”", "experiment_in_all_cases": "ITC; ITC at 30 C in TBS with 1 mM TCEP (pH not stated); 8 uM (6-10) protein in cell, 40 uM (15-50) nucleic acid in syringe; one-site model", "key": {"Pr55Gag [1]": {"target": "T1, Pr55Gag (HIV-1, UniProt P12493 1-500)", "details": "protein: recombinant; tags: C-terminal His"}, "Pr50GagΔp6-TEV": {"target": "Pr50GagΔp6-TEV (HIV-1, UniProt P12493 1-448)", "details": "protein: recombinant; tags: His removed by TEV protease; TEV site remnant at C-term"}, "Pr55Gag-TEV": {"target": "Pr55Gag-TEV (HIV-1, UniProt P12493 1-500)", "details": "protein: recombinant; tags: His removed by TEV protease; TEV site remnant at C-term"}, "Pr55Gag [2]": {"target": "T1, Pr55Gag", "details": "protein: recombinant, tags: C-terminal His"}, "Pr50GagΔp6": {"target": "Pr50GagΔp6 (HIV-1, UniProt P12493 1-448)", "details": "protein: recombinant, tags: C-terminal His"}, "p15NC-SP2-p6": {"target": "p15NC-SP2-p6 (HIV-1, UniProt P12493 378-500)", "details": "protein: recombinant, tags: C-terminal His"}, "p7NC": {"target": "p7NC (HIV-1, UniProt P12493 378-432)", "details": "protein: recombinant, tags: C-terminal His"}}, "data": [{"binder": "GAGAAGAGAAGAGAAGAGAA (ssRNA)", "note": "[4x 5'-GAGAA-3' (A-containing)]", "values": [{"measurement": "binding signal", "setting": "Pr55Gag [1]", "result": "~3 fold stronger Kd than GU-containing RNA (average over sets)"}]}, {"binder": "CUUAGAAAUAGGGCAGCAUAGAACAAAAAUAGAGGAA (ssRNA)", "note": "[HIVNL4.3RNA2671-2707]", "values": [{"measurement": "binding result", "setting": "Pr50GagΔp6-TEV", "result": "binds"}, {"measurement": "binding result", "setting": "Pr55Gag-TEV", "result": "binds"}]}, {"binder": "GAUGGGAUGGGAUGGGAUGG (ssRNA)", "note": "[4x 5'-GAUGG-3' (GU-containing)]", "values": [{"measurement": "binding result", "setting": "Pr50GagΔp6-TEV", "result": "binds"}, {"measurement": "binding result", "setting": "Pr55Gag [2]", "result": "binds"}, {"measurement": "binding result", "setting": "Pr50GagΔp6", "result": "binds"}, {"measurement": "binding result", "setting": "p15NC-SP2-p6", "result": "binds"}, {"measurement": "binding result", "setting": "Pr55Gag-TEV", "result": "binds"}, {"measurement": "binding result", "setting": "p7NC", "result": "binds"}]}, {"binder": "GGACUAGCGGAGGCUAGUCC (structured_RNA)", "note": "[Psi SL3 RNA (20mer)]", "values": [{"measurement": "Kd", "setting": "Pr55Gag [2]; hairpin", "result": "81 ± 25", "unit": "nM"}, {"measurement": "Kd", "setting": "Pr50GagΔp6; hairpin", "result": "98 ± 3", "unit": "nM"}, {"measurement": "Kd", "setting": "p15NC-SP2-p6; hairpin", "result": "57 ± 11", "unit": "nM"}, {"measurement": "Kd", "setting": "p7NC; hairpin", "result": "48 ± 23", "unit": "nM"}]}]}
